Reference: patent US20220280633A1

Test system: T1, fluorogenic substrate (R&D systems, cat no ES007), peptide YVADAPK between a 7-methoxycoumarin (Mca) group and a 2,4-dinitrophenyl (Dnp) group
T1 sequence: YVADAPK

commercial ACE-2 from Sino Biological (cat no 10108H08H20)
enzymatic activity assay using a fluorogenic substrate: All four samples appeared to have similar levels of activity
